Assay results taken from the supplement of paper PMC9732359.
± gives the uncertainty stated by the source.

Assay: protein stability index of a GFP-peptide fusion (yeast GPS) (PSI 1-4); higher = more stable; sorted into four equal gates, so the index is relative within each strain
Outline: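 Sequencing reads from sorted gates were used to score each peptide. The library consisted of tiled 17-residue yeast protein peptides fused downstream of GFP on a Cherry-expressing plasmid, pooled and carried in yeast. Mid-log cultures in leucine-free medium were split into four equal gates by GFP/Cherry ratio, and each gate's plasmids were PCR-amplified and Illumina-sequenced. The protein stability index adds up, over all gates, the read frequency multiplied by the gate number.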

Sequence	protein stability index (doa10∆)	protein stability index (pdr5∆)	protein stability index (san1∆)	protein stability index (ubr1∆)
AAEQQSKAFKESSDFGA [SRP54]	2.8 ± 0.057	2.3 ± 0.049	2.58 ± 0.082	2.34 ± 0.057
TSNGLKKNPNWLEEYHP [FAS1]	3.3 ± 0.17	3.22 ± 0.15	3.48 ± 0.098	3.38 ± 0.11
LADDDEERFSELFKGYL [RPL5]	1.59 ± 0.13	2.05 ± 0.14	2.84 ± 0.2	3.01 ± 0.28
RSKFLSTVAKFLARVIK [IRR1]	3.04 ± 0.07	2 ± 0.07	2.24 ± 0.11	2.2 ± 0.047
DAVKDFKLGKFNYVAVG [QCR2]	3.2 ± 0.24	1.52 ± 0.14		
DPASFYLFDEIDAALDK [SMC3]	2.89 ± 0.075	3.02 ± 0.082	2.61 ± 0.083	2.72 ± 0.046
LARHLPAELDLRGSLLS [RPC82]	3.04 ± 0.12	3.16 ± 0.11	3.01 ± 0.085	3.15 ± 0.072
FELCSLGDKELWPVAIG [YJR042W/NUP85]				2.49 ± 0.28
TLERVHLSYCSNLTIYP [GRR1]	2.92 ± 0.067	3 ± 0.067	2.99 ± 0.15	3 ± 0.05
NINAKMETRINILLRER [YIL149C/MLP2]	2.98 ± 0.18	3.35 ± 0.12	2.61 ± 0.12	3.15 ± 0.1
DNLLLNLEQINEDLEDG [REC8]	2.81 ± 0.056	2.67 ± 0.066	2.71 ± 0.08	3.07 ± 0.061
VTVDADIDDILKKGEQK [ISW2]	2.85 ± 0.12	2.76 ± 0.07	2.35 ± 0.084	2.72 ± 0.043
ADGSSYMEQGNNKIITL [SKI6]	2.79 ± 0.044	3.07 ± 0.059	2.82 ± 0.04	3.015 ± 0.029
TQKRLAASVVGVGKRKV [RPL19A]	1.33 ± 0.1	1.32 ± 0.16	1.13 ± 0.11	1.79 ± 0.11
NVSSNIVKNAEQHNLVK [RPS20]	2.81 ± 0.066	3.17 ± 0.057	3.26 ± 0.046	3.07 ± 0.061
GFSMNNPYNIVPQGKIV [SMC3]	3.05 ± 0.11	2.93 ± 0.071	3.08 ± 0.085	3.09 ± 0.062
GNDNLIKAPTVAADGKL [YLR335W/NUP2]	2.46 ± 0.097	2.93 ± 0.09	2.56 ± 0.077	2.95 ± 0.072
EDSSILQSIVNEISRNG [PCI8]	3.13 ± 0.13	2.96 ± 0.1	3 ± 0.054	3.41 ± 0.09
TDIEEGMRVGVDRSKYN [RPT1]	3.13 ± 0.14	3.34 ± 0.27	3.07 ± 0.1	3.13 ± 0.15
DSLSGAVIAAIMQEAGL [RPT3]		1.14 ± 0.18		
PKELVPSHEKLKESYSQ [CDC53]	3.13 ± 0.077	3.02 ± 0.067	2.51 ± 0.14	2.81 ± 0.073
VTWRTFTGDFLRRVEER [FAS1]	2.79 ± 0.12	1.78 ± 0.096	1.96 ± 0.12	1.24 ± 0.15
QARMMQQQSADHDDSTD [NSL1]	2.76 ± 0.051	2.74 ± 0.058	2.62 ± 0.052	2.76 ± 0.039
KKSKKKWSKKSMKDRAQ [RPS25A]	3.46 ± 0.069	3.37 ± 0.1	3.36 ± 0.087	3.6 ± 0.051
LTKKYSFKIFVDVLVIS [RRP42]	1.22 ± 0.049	1.25 ± 0.051	1.41 ± 0.071	1.44 ± 0.039
DLISKKTKTSLLPTIKR [RPR2]	3.09 ± 0.079	2.58 ± 0.073	2.58 ± 0.086	2.74 ± 0.063

Sequence	protein stability index (doa10∆)	protein stability index (pdr5∆)	protein stability index (san1∆)	protein stability index (ubr1∆)
DTFLPPPPPPPSNFEIN [PRP8]	2.6 ± 0.039	2.57 ± 0.039	2.34 ± 0.04	2.33 ± 0.032
QKNDTAAFKDIAKRQFK [RRP40]	2.95 ± 0.093	3.33 ± 0.12	2.76 ± 0.068	3.35 ± 0.058
KDMLYSGITGECLQAYI [RET1]	2.65 ± 0.047	2.68 ± 0.051	2.5 ± 0.052	2.31 ± 0.057
SLYQVDPSGSYFPWKAT [PRE8]	2.87 ± 0.1	2.66 ± 0.11	2.65 ± 0.093	3.25 ± 0.099
YFSVTTARRNVSGDAAA [SWI3]	1.9 ± 0.059	2.23 ± 0.063	2.33 ± 0.08	1.88 ± 0.047
GEALPNKFHKSIREDIL [SIR2]	3.16 ± 0.14	3.04 ± 0.11	2.7 ± 0.096	2.76 ± 0.07
TTPKKIKHKHKKVKLAV [RPS31]	2.19 ± 0.052	1.99 ± 0.1	1.34 ± 0.2	1.91 ± 0.059
QDNKQLYQIWIVMVWLK [YDL116W/NUP84]	2.62 ± 0.058	2.62 ± 0.049	3.02 ± 0.065	2.78 ± 0.031
DGIHYILNHIGQLTGIY [PRP8]	1.67 ± 0.065	1.55 ± 0.073	1.14 ± 0.12	1.67 ± 0.078
YYNEISRDLDISSSTQC [POP6]	1.95 ± 0.091	2.56 ± 0.073	2.25 ± 0.093	2.3 ± 0.043
GNVIQFIYGEDGMDAAH [RPO21]	2.89 ± 0.065	2.58 ± 0.06	3.2 ± 0.063	3.32 ± 0.042
GNYIKTENATENDQQDN [LIN1]	2.51 ± 0.098	2.62 ± 0.071	2.05 ± 0.13	2.61 ± 0.086
AKSMAFLKEVLSDLSSP [YML103C/NUP188]	2.97 ± 0.079	3.1 ± 0.079	2.79 ± 0.11	2.95 ± 0.065
ILKWVQWSRIVLQNVFK [MED1]	2.98 ± 0.087	3.13 ± 0.12	3.29 ± 0.067	3.07 ± 0.068
PVSPLDIYSDEASAQKK [RPS2]	2.74 ± 0.095	2.93 ± 0.093	3.02 ± 0.075	3.02 ± 0.06
FISSNDAFNMLSLTTVP [SNF6]	1.7 ± 0.054	2.44 ± 0.063	2.31 ± 0.11	2 ± 0.06
RLECVKCKTRAQLTLKR [RPL42A]	2.8 ± 0.096	2.46 ± 0.085	2.52 ± 0.14	2.54 ± 0.056
ALIDAGISMFDYISGIS [SKI6]	1.48 ± 0.064	1.5 ± 0.046	2.3 ± 0.099	1.68 ± 0.037
TSGTSSEQFNVWDWNNW [GAL11]	2.56 ± 0.086	3.11 ± 0.11	2.71 ± 0.073	2.73 ± 0.096
KYISAELYAQLRENGLV [SNU114]	2.91 ± 0.13	2.99 ± 0.12	3.21 ± 0.092	3.07 ± 0.076
SDRECPKCHSRENVFFQ [RPB9]	2.88 ± 0.062	2.74 ± 0.061	2.47 ± 0.058	2.79 ± 0.04
TEQTKSKNPLSLTEATK [YLR335W/NUP2]	3.08 ± 0.045	2.97 ± 0.053	2.91 ± 0.062	3.14 ± 0.051
SDPLTVFSESCSNESFA [SNU114]	2.83 ± 0.055	2.96 ± 0.057	2.58 ± 0.047	2.96 ± 0.038
KRADISKRRITEELSIT [SMC1]	1.46 ± 0.086	1.73 ± 0.078	1.72 ± 0.12	1.83 ± 0.08
QPHIFNNPKVKTSKRTK [RPS11A]	2.95 ± 0.052	2.81 ± 0.061	2.98 ± 0.091	2.36 ± 0.031
SPPPQTHQSPPPPPQQS [SNF5]	2.87 ± 0.034	2.72 ± 0.029	2.75 ± 0.032	2.74 ± 0.03
